Results on one molecule are retold here after patent publication US20140206628A1 (University of Washington, published 2014).

The target in this assay is A/WSN/1933 (H1N1) hemagglutinin (Influenza A virus A/WSN/1933 (H1N1)). Put plainly: gel filtration. (Size exclusion chromatography separates by hydrodynamic size, large species first.)

B1: HB36.3 (Asp47Ser, Ala60Val) (designed binder)
chain: MSNAMDGQQLNRLLLEWIGAWDPFGLGKDAYDVEAEAVLQAVYETESAFDLAMRIMWIYVFAFNRPIPFPHAQKLARRLLELKQAASSPLPLE
Take B1: the binding result is on record as “binds”.
